Source: patent US20050123944

Test system: BamHI
Assay: EMSA
Settings: value is complex half-life, not a rate; 5 mM CaCl2, no Mg2+; 2 nM BamHI, 100 pM DNA, 6000-fold unlabeled competitor

Work on DNA duplex with single BamHI site yielded a complex half-life (min (half-life)) of 39600.
